Changes are numbered by the printed parent chain. In names and notes the source's numbering stands. Blank lines part the entries; values can stand above or below the binder they belong to.
What was measured:
FcgRIa [1] = biological target: T1, FcgRIa (human, UniProt P12314 16-292); test: SPR (Biacore), antibody captured, FcgR as analyte
T1 construct: extracellular domain; Soluble extracellular domain with C-terminal His tag, expressed in FreeStyle293 cells; also called FcγRIa; FcγRI; not shown: His tag attached to the C terminus
T1 sequence (P12314 16-292): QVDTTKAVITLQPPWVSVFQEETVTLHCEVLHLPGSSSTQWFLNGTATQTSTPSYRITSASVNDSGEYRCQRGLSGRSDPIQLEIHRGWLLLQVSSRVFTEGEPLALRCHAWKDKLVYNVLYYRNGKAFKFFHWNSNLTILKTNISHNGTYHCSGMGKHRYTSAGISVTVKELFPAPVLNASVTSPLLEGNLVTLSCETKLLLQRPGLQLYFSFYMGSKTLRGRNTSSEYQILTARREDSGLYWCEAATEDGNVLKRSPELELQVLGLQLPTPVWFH
Description: (§1) Analysis of interaction between obj ective antibody and the FcγR was carried out using Biacore T100 (GE Healthcare), Biacore T200, Biacore A100, and Biacore 4000. HBS-EP+ (GE Healthcare) was used as the running buffer, and the measurement temperature was set to 25° C. Chips produced by immobilizing the antigen peptide by the amine coupling method to a Series S sensor Chip CM5 (GE Healthcare), chips produced by allowing preliminarily biotinylated antigen peptides to interact with and immobilize onto a Series S Sensor Chip SA (certified) (GE Healthcare), chips produced by immobilizing Protein L (ACTIGEN, BioVision) to Series S Sencor Chip CM5 (GE Healthcare), or chips produced by immobilizing Protein A/G (Thermo Scientific) to Series S Sencor Chip CM5 (GE Healthcare) were used. Antibodies of interest were captured onto these chips, and allowed to interact to each FcγR diluted with running buffer. To regenerate and repeatedly use the chip, the antibodies captured onto the chip were washed off by reacting 10 mM glycine-HCl, pH 1.5.

FcgRIIaR [2] = biological target: T2, FcgRIIaR (human, UniProt P12318 34-217); test: SPR (Biacore), antibody captured, FcgR as analyte
T2 construct: extracellular domain; Soluble extracellular domain with C-terminal His tag; also called FcγRIIa R; FcγRIIa type R; not shown: His tag attached to the C terminus
T2 sequence (looked up): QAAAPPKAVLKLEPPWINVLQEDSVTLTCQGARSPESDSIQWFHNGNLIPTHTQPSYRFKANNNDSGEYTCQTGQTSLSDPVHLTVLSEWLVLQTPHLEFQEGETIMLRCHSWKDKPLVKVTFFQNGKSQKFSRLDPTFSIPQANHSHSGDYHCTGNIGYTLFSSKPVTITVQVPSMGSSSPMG
Description: as §1

FcgRIIaH [3] = biological target: T3, FcgRIIaH (human, UniProt P12318 34-217); test: SPR (Biacore), antibody captured, FcgR as analyte
T3 construct: extracellular domain; Soluble extracellular domain with C-terminal His tag; also called FcγRIIa H; FcγRIIa type H; not shown: His tag attached to the C terminus
T3 sequence (looked up): T2 sequence (looked up) with R134H
Description: as §1

FcgRIIb [4] = biological target: T4, FcgRIIb (human, UniProt P31994 43-217); test: SPR (Biacore), antibody captured, FcgR as analyte
T4 construct: extracellular domain; Soluble extracellular domain with C-terminal His tag; also called FcγRIIb; CD32B; not shown: His tag attached to the C terminus
T4 sequence (looked up): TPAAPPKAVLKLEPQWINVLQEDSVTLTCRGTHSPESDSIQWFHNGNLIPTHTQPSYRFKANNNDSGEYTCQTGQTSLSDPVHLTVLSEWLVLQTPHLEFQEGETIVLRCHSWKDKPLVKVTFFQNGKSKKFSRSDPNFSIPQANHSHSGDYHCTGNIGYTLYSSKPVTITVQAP
Description: as §1

FcgRIIIaF [5] = biological target: T5, FcgRIIIaF (human, UniProt P08637 17-208); test: SPR (Biacore), antibody captured, FcgR as analyte
T5 construct: extracellular domain; Soluble extracellular domain with C-terminal His tag; polymorphic site made after J. Clin. Invest; also called FcγRIIIa F; not shown: His tag attached to the C terminus
T5 sequence (P08637 17-208): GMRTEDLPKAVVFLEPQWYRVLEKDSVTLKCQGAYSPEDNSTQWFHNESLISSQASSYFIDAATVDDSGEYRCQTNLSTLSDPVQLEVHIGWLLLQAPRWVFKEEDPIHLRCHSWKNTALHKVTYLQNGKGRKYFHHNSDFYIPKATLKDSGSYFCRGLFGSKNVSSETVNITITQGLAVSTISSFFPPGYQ
Description: as §1

FcgRIIIaV [6] = biological target: T6, FcgRIIIaV (human, UniProt P08637 17-208); test: SPR (Biacore), antibody captured, FcgR as analyte
T6 construct: extracellular domain; Soluble extracellular domain with C-terminal His tag; polymorphic site made after J. Clin. Invest; also called FcγRIIIa V; not shown: His tag attached to the C terminus
T6 sequence (P08637 17-208 F176V limits assumed): as the sequence (P08637 17-208) above, with F160V counted along it
Description: as §1

FcgRIa [7] = biological target: T1, FcgRIa; test: SPR (Biacore); KD of H240-Kn120/H240-Hl068/L73-k0 divided by KD of this antibody
Description: (§2) Analysis of interaction between obj ective antibody and the FcγR was carried out using Biacore T100 (GE Healthcare), Biacore T200, Biacore A100, and Biacore 4000.

FcgRIIaR [8] = biological target: T2, FcgRIIaR; test: as above
Description: as §2

FcgRIIaH [9] = biological target: T3, FcgRIIaH; test: as above
Description: as §2

FcgRIIb [10] = biological target: T4, FcgRIIb; test: as above
Description: as §2

FcgRIIIaF [11] = biological target: T5, FcgRIIIaF; test: as above
Description: as §2

FcgRIIIaV [12] = biological target: T6, FcgRIIIaV; test: as above
Description: as §2

[13] = biological target: T7, FcγRIIa H (FcγRIIa, allotype with His at position 131), extracellular domain with C-terminal His tag (human, UniProt P12318 34-217); test: SPR (Biacore T100), antibody captured on antigen-peptide chip, FcγRIIa H as analyte; response per captured antibody relative to GpH7-B3/GpL16-k0
T7 construct: extracellular domain; Soluble receptor expressed in FreeStyle293 cells and used as the analyte in Biacore; also called FcgRIIa H; FcγRIIa type H; not shown: His tag attached to the C terminus
T7 sequence (looked up): T2 sequence (looked up) with R134H
Description: (§3) Analysis of interaction between objective antibody and the FcγR was carried out using Biacore T100 (GE Healthcare). HBS-EP+ (GE Healthcare) was used as the running buffer, and the measurement temperature was set to 25° C. Chips produced by immobilizing the antigen peptide by the amine coupling method to a Series S Sencor Chip CM5 (GE Healthcare), or alternatively, chips produced by allowing preliminarily biotinylated antigen peptides to interact with and immobilize onto a Series S Sensor Chip SA (certified) (GE Healthcare) were used. Antibodies of interest were captured onto an antigen peptide-immobilized chip, and allowed to interact to each FcγR diluted with running buffer. To regenerate and repeatedly use the chip, the antibodies captured on the chip were washed off by reacting 10 mM glycine-HCl, pH 1.5.

[14] = biological target: T7, FcγRIIa H (FcγRIIa, allotype with His …); test: SPR (Biacore T100), antibody captured on antigen-peptide chip, FcγRIIa H as analyte; response per captured antibody relative to GpH7-A5/GpH7-B3/GpL16-k0
Description: as §3

- He/Con_2aH [14]: 105 relative binding activity (control heterodimerized antibody GpH7-A5/GpH7-B3/GpL16-k0 = 100)
B5: GpH7-A5/GpH7-B3 variant Y300_06M/GpL16-k0 (heterodimerized antibody, He Ab) (antibody, human IgG1, kappa)
heavy 1: not shown
heavy 2: not shown
light: DIVMTQSPLSLPVTPGEPASISCQASESLVHSNRNTYLHWYLQKPGQSPQLLIYKVSNRFSGVPDRFSGSGSGTDFTLKISRVEAEDVGVYYCSQNTHVPPTFGQGTKVEIERTVAAPSVFIFPPSDEQLKSGTASVVCLLNNFYPREAKVQWKVDNALQSGNSQESVTEQDSKDSTYSLSSTLTLSKADYEKHKVYACEVTHQGLSSPVTKSFNRGEC
notes: Anti-glypican-3 IgG1; substitution only in the GpH7-B3 chain; Position is EU numbering; also called He Ab Y300M

- Ho/Con_2aH [13]: 110 relative binding activity (control homodimerized antibody GpH7-B3/GpL16-k0 = 100)
B6: GpH7-B3 variant T335_09D/GpL16-k0 (homodimerized antibody, Ho Ab) (antibody, human IgG1, kappa)
heavy: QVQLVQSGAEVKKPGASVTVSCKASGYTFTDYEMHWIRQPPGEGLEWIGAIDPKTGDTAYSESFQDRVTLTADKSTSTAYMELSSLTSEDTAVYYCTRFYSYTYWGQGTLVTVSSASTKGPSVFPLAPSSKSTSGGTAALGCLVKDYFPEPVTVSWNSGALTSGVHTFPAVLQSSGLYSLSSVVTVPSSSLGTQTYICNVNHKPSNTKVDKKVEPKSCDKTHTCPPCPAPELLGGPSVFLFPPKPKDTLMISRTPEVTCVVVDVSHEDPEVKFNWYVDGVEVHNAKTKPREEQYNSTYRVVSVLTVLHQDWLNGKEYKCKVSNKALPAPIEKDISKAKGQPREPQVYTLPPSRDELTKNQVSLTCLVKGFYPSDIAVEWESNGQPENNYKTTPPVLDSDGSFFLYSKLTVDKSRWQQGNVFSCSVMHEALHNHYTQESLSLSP
light: B5 light
notes: Anti-glypican-3 IgG1 (GpH7-B3 background); substitution in both H chains; Position is EU numbering; also called Ho Ab T335D

- Ho/Con_2aH [13]: 115 relative binding activity (control homodimerized antibody GpH7-B3/GpL16-k0 = 100)
B7: GpH7-B3 variant Y300_08L/GpL16-k0 (homodimerized antibody, Ho Ab) (antibody, human IgG1, kappa)
heavy: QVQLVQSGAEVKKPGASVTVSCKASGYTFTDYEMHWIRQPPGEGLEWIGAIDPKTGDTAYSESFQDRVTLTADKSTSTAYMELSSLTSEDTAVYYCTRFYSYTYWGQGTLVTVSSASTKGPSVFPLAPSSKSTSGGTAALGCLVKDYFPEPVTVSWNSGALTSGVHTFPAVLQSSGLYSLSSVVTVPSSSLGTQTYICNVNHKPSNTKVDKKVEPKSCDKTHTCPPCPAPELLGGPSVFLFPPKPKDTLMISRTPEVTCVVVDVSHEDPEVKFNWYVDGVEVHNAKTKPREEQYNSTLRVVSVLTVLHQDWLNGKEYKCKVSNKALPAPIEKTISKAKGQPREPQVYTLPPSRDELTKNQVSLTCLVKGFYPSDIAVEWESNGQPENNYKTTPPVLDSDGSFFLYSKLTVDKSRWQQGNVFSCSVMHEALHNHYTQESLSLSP
light: B5 light
notes: Anti-glypican-3 IgG1 (GpH7-B3 background); substitution in both H chains; Position is EU numbering; also called Ho Ab Y300L

- He/Con_2aH [14]: 106 relative binding activity (control heterodimerized antibody GpH7-A5/GpH7-B3/GpL16-k0 = 100)
B8: GpH7-A5/GpH7-B3 variant T335_08L/GpL16-k0 (heterodimerized antibody, He Ab) (antibody, human IgG1, kappa)
heavy 1: not shown
heavy 2: not shown
light: B5 light
notes: Anti-glypican-3 IgG1; substitution only in the GpH7-B3 chain; Position is EU numbering; also called He Ab T335L

- Ho/Con_2aH [13]: 106 relative binding activity (control homodimerized antibody GpH7-B3/GpL16-k0 = 100)
B9: GpH7-B3 variant T335_08L/GpL16-k0 (homodimerized antibody, Ho Ab) (antibody, human IgG1, kappa)
heavy: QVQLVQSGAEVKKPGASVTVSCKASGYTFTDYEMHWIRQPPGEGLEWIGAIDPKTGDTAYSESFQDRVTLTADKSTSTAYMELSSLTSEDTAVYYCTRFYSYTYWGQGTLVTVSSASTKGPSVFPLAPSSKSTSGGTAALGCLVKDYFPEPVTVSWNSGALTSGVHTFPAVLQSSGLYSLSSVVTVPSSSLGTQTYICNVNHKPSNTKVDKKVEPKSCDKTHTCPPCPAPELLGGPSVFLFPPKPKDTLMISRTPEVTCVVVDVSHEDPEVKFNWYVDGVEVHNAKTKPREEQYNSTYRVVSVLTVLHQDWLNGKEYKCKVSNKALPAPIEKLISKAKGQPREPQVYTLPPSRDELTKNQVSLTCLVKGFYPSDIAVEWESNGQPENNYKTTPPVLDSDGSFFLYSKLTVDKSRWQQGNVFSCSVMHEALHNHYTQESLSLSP
light: B5 light
notes: Anti-glypican-3 IgG1 (GpH7-B3 background); substitution in both H chains; Position is EU numbering; also called Ho Ab T335L

The remaining lines, values behind:

B1: H240-Kn178/H240-Hl068/L73-k0 (antibody, human IgG1, kappa)
heavy 1: QDQLVQSGAEVKKPGASVKVSCKASGFNIKDTYIQWVRQAPGQGLEWMGRIDPLRKQTKYREKFEGRVTITADTSTNTAYMELSSLRSEDTAVYYCVRSGREFDYWGQGTLVTVSSASTKGPSVFPLAPSSKSTSGGTAALGCLVKDYFPEPVTVSWNSGALTSGVHTFPAVLQSSGLYSLSSVVTVPSSSLGTQTYICNVNHKPSNTKVDKKVEPKSCDKTHTCPPCPAPEYYWGPMVFLFPPKPKDTLMISRTPEVTCVVVDVSDEDPEVKFNWYVDGVEVHNAKTKPREEQYNATYRVVSVLTVLHQDWLNGKEYKCKVSNKDLPAPIEYTISKAKGQPREPQVCTLPPSRDELTKNQVSLWCLVKGFYPSDIAVEWESNGQPENNYKTTPPVLDSDGSFFLYSKLTVDKSRWQQGNVFSCSVMHEALHNHYTQKSLSLSP
heavy 2: QDQLVQSGAEVKKPGASVKVSCKASGFNIKDTYIQWVRQAPGQGLEWMGRIDPLRKQTKYREKFEGRVTITADTSTNTAYMELSSLRSEDTAVYYCVRSGREFDYWGQGTLVTVSSASTKGPSVFPLAPSSKSTSGGTAALGCLVKDYFPEPVTVSWNSGALTSGVHTFPAVLQSSGLYSLSSVVTVPSSSLGTQTYICNVNHKPSNTKVDKKVEPKSCDKTHTCPPCPAPELLGGPSVFLFPPKPKDTLMISRTPEVTCVVVDVSHEEPEVKFNWYVDGVEVHNAKTKPREEQYNSTYRVVSVLTVLHQDWLNGKEYKCKVSNDALPKPIEETISKAKGQPREPQVYTLPPSRCELTKNQVSLSCAVKGFYPSDIAVEWESNGQPENNYKTTPPVLDSDGSFFLVSKLTVDKSRWQQGNVFSCSVMHEALHNHYTQKSLSLSP
light: DIQMTQSPSSLSASVGDRVTITCRASQDIHKYIAWYQQKPGQAPRLLIQYTSTLQPGVPSRFSGSGSGTDYTFTISSLQPEDIATYYCLQYEQLRTFGGGTKVEIKRTVAAPSVFIFPPSDEQLKSGTASVVCLLNNFYPREAKVQWKVDNALQSGNSQESVTEQDSKDSTYSLSSTLTLSKADYEKHKVYACEVTHQGLSSPVTKSFNRGEC
notes: Heterodimerized anti-epiregulin IgG1 antibody; K334Y introduced into H240-Kn120; also called H240-Kn178/H240-HI068/L73-k0
- Kd (FcgRIa [1]): 0.23 nM
- Kd (FcgRIIaR [2]): 26 nM
- Kd (FcgRIIaH [3]): 65 nM
- Kd (FcgRIIb [4]): 110 nM
- Kd (FcgRIIIaF [5]): 1.4 nM
- Kd (FcgRIIIaV [6]): 0.19 nM
- Relative KD (FcgRIa [7]): 0.7
- Relative KD (FcgRIIaR [8]): 0.8
- Relative KD (FcgRIIaH [9]): 0.6
- Relative KD (FcgRIIb [10]): 1.4
- Relative KD (FcgRIIIaF [11]): 1.6
- Relative KD (FcgRIIIaV [12]): 1.9

B2: GpH7-B3 variant T335_02A/GpL16-k0 (homodimerized antibody, Ho Ab) (antibody, human IgG1, kappa)
heavy: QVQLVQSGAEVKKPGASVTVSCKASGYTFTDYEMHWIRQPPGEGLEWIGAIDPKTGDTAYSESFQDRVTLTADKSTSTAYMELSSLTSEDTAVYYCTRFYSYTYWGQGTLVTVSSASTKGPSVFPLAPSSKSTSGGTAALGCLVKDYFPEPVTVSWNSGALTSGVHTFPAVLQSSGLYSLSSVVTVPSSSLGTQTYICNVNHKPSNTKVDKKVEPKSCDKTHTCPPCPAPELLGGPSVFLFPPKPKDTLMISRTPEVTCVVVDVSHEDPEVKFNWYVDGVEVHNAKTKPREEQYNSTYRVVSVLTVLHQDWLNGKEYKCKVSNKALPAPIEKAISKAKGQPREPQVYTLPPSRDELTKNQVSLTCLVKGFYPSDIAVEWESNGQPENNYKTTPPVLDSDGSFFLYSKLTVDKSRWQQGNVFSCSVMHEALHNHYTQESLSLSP
light: B5 light
notes: Anti-glypican-3 IgG1 (G1d with K439E = GpH7-B3); the substitution stands in both H chains; also called Ho Ab T335A
- Ho/Con_2aH [13]: 103 relative binding activity (control homodimerized antibody GpH7-B3/GpL16-k0 = 100)

B3: GpH7-A5/GpH7-B3 variant T335_02A/GpL16-k0 (heterodimerized antibody, He Ab) (antibody, human IgG1, kappa)
heavy 1: not shown
heavy 2: not shown
light: B5 light
notes: Anti-glypican-3 IgG1; the substitution stands only in the GpH7-B3 chain, the other H chain is GpH7-A5 (D356K/H435R); Position is EU numbering; also called He Ab T335A
- He/Con_2aH [14]: 101 relative binding activity (control heterodimerized antibody GpH7-A5/GpH7-B3/GpL16-k0 = 100)

B4: GpH7-A5/GpH7-B3 variant T335_06M/GpL16-k0 (heterodimerized antibody, He Ab) (antibody, human IgG1, kappa)
heavy 1: not shown
heavy 2: not shown
light: B5 light
notes: Anti-glypican-3 IgG1; substitution only in the GpH7-B3 chain; Position is EU numbering; also called He Ab T335M
- He/Con_2aH [14]: 103 relative binding activity (control heterodimerized antibody GpH7-A5/GpH7-B3/GpL16-k0 = 100)

Reference: patent publication US20180155451A1 (published 2018)
